US20240034813A1 (Janssen / Centocor, published 2024)

Assays:
[1] = biological target: T1, recombinant human EGFR/ErbB1/HER1 with C-terminal His tag, Cy5-labeled (human, UniProt P00533 25-645, Cy5 label (reacted with Cy5 Mono NHS Ester; sites not stated)); test: competitive TR-FRET (Eu-amivantamab/Cy5-EGFR), EC50 ratio vs Reference Material; Ex. 12 drug product with rHuPH20, 12 months at 5 C
T1 construct: Commercial protein; also called Cy5-EGFR; Cy5-labeled EGFR antigen; not shown: C-terminal His tag
Source text: (§1) In this procedure, varying concentrations of unlabeled bispecific EGFR-cMet antibody sample compete with donor fluorophore (Europium (Eu) chelate) labeled bispecific EGFR-cMet antibody for binding to an acceptor fluorophore (Cy5)-labeled EGFR antigen. Excitation of the donor fluorophore results in a transfer of energy to the bound acceptor fluorophore (FRET process). The resultant FRET is detected by emission of light at 665 nm using a microplate reader capable of measuring time-resolved fluorescence. Sample dose response curves are compared to the RM.
(§2) EGFR Binding Materials and Methods. Certified commercial EGFR, a recombinant human EGFR/ErbB1/HER1 with C-terminal His tag is reacted with certified commercial Cy5 Mono NHS Ester to produce Cy5-labeled EGFR. Validated bispecific EGFR-cMet antibody is reacted with certified commercial Europium (Eu) chelate to produce Eu-labeled bispecific EGFR-cMet antibody. […] Fluorescence is then measured by spectrophotometry at 665 nm, plotted against antibody concentration and analyzed by a four-parameter logistic model. The antibody concentration required to obtain half of the maximum fluorescence response (EC50) is determined for RM, assay control and samples. The potencies of assay control and samples are calculated based on the ratio of the sample (or control) and RM EC50 values and reported as a percentage activity relative to the RM.

[2] = biological target: T1, recombinant human EGFR/ErbB1/HER1 with …; test: competitive TR-FRET (Eu-amivantamab/Cy5-EGFR), EC50 ratio vs Reference Material; Ex. 11 drug product, 1 month at 40 C
Source text: as §1, §2

[3] = biological target: T2, recombinant cMet/HGFR with c-terminal His-tag, Cy5-labeled (UniProt P08581 25-932, limits assumed, Cy5 label (reacted with Cy5 Mono NHS Ester; sites not stated)); test: competitive TR-FRET (Eu-amivantamab/Cy5-c-MET), EC50 ratio vs Reference Material; Ex. 12 drug product with rHuPH20, 3 months at 5 C
T2 construct: Commercial protein; also called Cy5-c-MET; Cy5-labeled c-MET antigen; not shown: C-terminal His-tag
Source text: as §1, with “(Cy5)-labeled c-MET” for “(Cy5)-labeled EGFR”, “the Reference Material (RM).” for “the RM.”
as §2, with “c-MET Binding” for “EGFR Binding”, “commercial cMet,” for “commercial EGFR,”, “recombinant cMet/HGFR” for “recombinant human EGFR/ErbB1/HER1”, “with c-terminal His-tag” for “with C-terminal His tag”, “Cy5-labeled c-MET.” for “Cy5-labeled EGFR.”, “produce Eu labeled” for “produce Eu-labeled”

[4] = biological target: T2, recombinant cMet/HGFR with c-terminal …; test: competitive TR-FRET (Eu-amivantamab/Cy5-c-MET), EC50 ratio vs Reference Material; Ex. 12 drug product with rHuPH20, 3 months at 25 C
Source text: as §1, with “(Cy5)-labeled c-MET” for “(Cy5)-labeled EGFR”, “the Reference Material (RM).” for “the RM.”
as §2, with “c-MET Binding” for “EGFR Binding”, “commercial cMet,” for “commercial EGFR,”, “recombinant cMet/HGFR” for “recombinant human EGFR/ErbB1/HER1”, “with c-terminal His-tag” for “with C-terminal His tag”, “Cy5-labeled c-MET.” for “Cy5-labeled EGFR.”, “produce Eu labeled” for “produce Eu-labeled”

[5] = biological target: T2, recombinant cMet/HGFR with c-terminal …; test: competitive TR-FRET (Eu-amivantamab/Cy5-c-MET), EC50 ratio vs Reference Material; Ex. 2 Formulation 2 (50 mM histidine), T0, 40 C table
Source text: as §1, with “(Cy5)-labeled c-MET” for “(Cy5)-labeled EGFR”, “the Reference Material (RM).” for “the RM.”
as §2, with “c-MET Binding” for “EGFR Binding”, “commercial cMet,” for “commercial EGFR,”, “recombinant cMet/HGFR” for “recombinant human EGFR/ErbB1/HER1”, “with c-terminal His-tag” for “with C-terminal His tag”, “Cy5-labeled c-MET.” for “Cy5-labeled EGFR.”, “produce Eu labeled” for “produce Eu-labeled”

[6] = biological target: T2, recombinant cMet/HGFR with c-terminal …; test: competitive TR-FRET (Eu-amivantamab/Cy5-c-MET), EC50 ratio vs Reference Material; Ex. 12 drug product with rHuPH20, 0 months, 40 C table
Source text: as §1, with “(Cy5)-labeled c-MET” for “(Cy5)-labeled EGFR”, “the Reference Material (RM).” for “the RM.”
as §2, with “c-MET Binding” for “EGFR Binding”, “commercial cMet,” for “commercial EGFR,”, “recombinant cMet/HGFR” for “recombinant human EGFR/ErbB1/HER1”, “with c-terminal His-tag” for “with C-terminal His tag”, “Cy5-labeled c-MET.” for “Cy5-labeled EGFR.”, “produce Eu labeled” for “produce Eu-labeled”

[7] = biological target: T2, recombinant cMet/HGFR with c-terminal …; test: competitive TR-FRET (Eu-amivantamab/Cy5-c-MET), EC50 ratio vs Reference Material; Ex. 11 drug product, 6 months at 5 C
Source text: as §1, with “(Cy5)-labeled c-MET” for “(Cy5)-labeled EGFR”, “the Reference Material (RM).” for “the RM.”
as §2, with “c-MET Binding” for “EGFR Binding”, “commercial cMet,” for “commercial EGFR,”, “recombinant cMet/HGFR” for “recombinant human EGFR/ErbB1/HER1”, “with c-terminal His-tag” for “with C-terminal His tag”, “Cy5-labeled c-MET.” for “Cy5-labeled EGFR.”, “produce Eu labeled” for “produce Eu-labeled”

[8] = biological target: T1, recombinant human EGFR/ErbB1/HER1 with …; test: competitive TR-FRET (Eu-amivantamab/Cy5-EGFR), EC50 ratio vs Reference Material; Ex. 2 Formulation 2 (50 mM histidine), T0, 25 C table
Source text: as §1, §2

B1: amivantamab (bispecific antibody, human IgG1, kappa)
heavy 1: not shown
light 1: not shown
heavy 2: not shown
light 2: DIQMTQSPSSVSASVGDRVTITCRASQGISNWLAWFQHKPGKAPKLLIYAASSLLSGVPSRFSGSGSGTDFTLTISSLQPEDFATYYCQQANSFPITFGQGTRLEIKRTVAAPSVFIFPPSDEQLKSGTASVVCLLNNFYPREAKVQWKVDNALQSGNSQESVTEQDSKDSTYSLSSTLTLSKADYEKHKVYACEVTHQGLSSPVTKSFNRGEC
notes: The samples tested were high concentration (160 mg/mL) formulations, fresh or stored or stressed; also called JNJ-61186372; bispecific EGFR-cMet antibody
B1 was tested, and the “EGFR Binding activity relative to Reference Material (%)” value [1] was 94%, the “EGFR Binding activity relative to Reference Material (%)” value [2] was 39% and the “cMET Binding activity relative to Reference Material (%)” value [3] was 97%. For the same binder, the “cMET Binding activity relative to Reference Material (%)” value [4] was 81%, the “cMET Binding % activity relative to RM” value [5] was 102% and the “cMET Binding activity relative to Reference Material (%)” value [6] was 91%. The “cMET Binding activity relative to Reference Material (%)” value [7] was 86% and the “EGFR Binding % activity relative to RM” value [8] was 103%.
